Assay results as given in PMC11748629, “Unidirectional MCM translocation away from ORC drives origin licensing” (Nature Communications, 2025).
Each block holds one substance with its values, some of them ahead of it.

Experiments:
Test in all cases: negative stain EM with 2D averaging; DH loading reaction in solution, no downstream purification: 10 nM MH-NCP-ARS1-NCP DNA, 20 nM ORC, 30 nM Cdc6, 0.5 mM ATP, 20 nM MCM-Cdt1; 25 mM HEPES pH 7.6, 100 mM potassium chloride, 10 mM magnesium acetate, 1 mM DTT; 30 °C, 30 min; DH counted as % of averageable MCM particles, N = 3; assemblies form on DNA
[1] = biological target: MCM-Cdt1 complex with Mcm2 R676A (Arginine Finger variant) (Saccharomyces cerevisiae) (UniProt P29469)
[2] = biological target: MCM-Cdt1 complex with Mcm3 R542A (Arginine Finger variant) (Saccharomyces cerevisiae) (UniProt P29469)
[3] = biological target: MCM-Cdt1 complex with Mcm4 R701A (Arginine Finger variant) (Saccharomyces cerevisiae) (UniProt P29469)
[4] = biological target: MCM-Cdt1 complex with Mcm6 R708A (Arginine Finger variant) (Saccharomyces cerevisiae) (UniProt P29469)
[5] = biological target: MCM-Cdt1 complex with Mcm7 R593A (Arginine Finger variant) (Saccharomyces cerevisiae) (UniProt P29469)
[6] = biological target: MCM-Cdt1 complex, wild type (expressed in yeast) (Saccharomyces cerevisiae) (UniProt P29469)

DH as % of averageable MCM particles [1]: 0.5%
Substance: MCM-Cdt1 complex with Mcm2 R676A (Arginine Finger variant), P29469 1-868; P24279 1-971; P30665 1-933; P29496 1-775; P53091 1-1017; P38132 1-845; P47112 1-604

DH as % of averageable MCM particles [2]: 13.9%
Substance: MCM-Cdt1 complex with Mcm3 R542A (Arginine Finger variant), P29469 1-868; P24279 1-971; P30665 1-933; P29496 1-775; P53091 1-1017; P38132 1-845; P47112 1-604

DH as % of averageable MCM particles [3]: 22.4%
Substance: MCM-Cdt1 complex with Mcm4 R701A (Arginine Finger variant), P29469 1-868; P24279 1-971; P30665 1-933; P29496 1-775; P53091 1-1017; P38132 1-845; P47112 1-604

DH as % of averageable MCM particles [4]: 2.4%
Substance: MCM-Cdt1 complex with Mcm6 R708A (Arginine Finger variant), P29469 1-868; P24279 1-971; P30665 1-933; P29496 1-775; P53091 1-1017; P38132 1-845; P47112 1-604

DH as % of averageable MCM particles [5]: 5.3%
Substance: MCM-Cdt1 complex with Mcm7 R593A (Arginine Finger variant), P29469 1-868; P24279 1-971; P30665 1-933; P29496 1-775; P53091 1-1017; P38132 1-845; P47112 1-604

DH as % of averageable MCM particles [6]: 56.5%
Substance: MCM-Cdt1 complex, wild type (expressed in yeast), P29469 1-868; P24279 1-971; P30665 1-933; P29496 1-775; P53091 1-1017; P38132 1-845; P47112 1-604
